Results on 8 molecules are retold here after patent US20230416362A1 (INDUSTRIAL TECHNOLOGY RESEARCH INSTITUTE, published 2023).

Where a chain is given by its changes, count along the chain named. Names and notes keep the numbering of the source.

The target in assay [1] is T1, mTIGIT (ELISA of Table 7) (mouse, UniProt P86176 29-145, limits assumed).
T1 construct: also called mouse TIGIT
T1 sequence (looked up): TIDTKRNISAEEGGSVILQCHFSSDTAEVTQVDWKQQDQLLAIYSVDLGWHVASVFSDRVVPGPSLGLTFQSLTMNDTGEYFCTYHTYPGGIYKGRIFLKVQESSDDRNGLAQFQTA
Put plainly: mTIGIT/mCD155 competition ELISA; competitor mCD155.

Assay [2] has as its target T2, hTIGIT (ELISA of Table 7) (human, UniProt Q495A1 22-141, limits assumed).
T2 construct: whole entry named; also called human TIGIT
T2 chain: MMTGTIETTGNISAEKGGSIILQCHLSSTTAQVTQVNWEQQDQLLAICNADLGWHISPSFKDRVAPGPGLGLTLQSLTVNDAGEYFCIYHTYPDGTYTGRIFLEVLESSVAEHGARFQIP
Put plainly: ELISA binding. Background: An ELISA detects its analyte on a solid surface through an enzyme-linked reagent.

Assay [3] concerns the target T1, mTIGIT (ELISA of Table 7). Put plainly: ELISA binding.
For assay [4], the target named is T3, human TIGIT IgV domain G74A (human, UniProt Q495A1 22-141, limits assumed).
T3 construct: Made in Expi293F cells, purified on Strep-Tactin XT; Limits of the IgV domain not readable, whole entry named; also called G74 single alanine substitution mutant
T3 chain: T2 chain with G53A
Put plainly: ELISA on TIGIT IgV point mutants. As to the method: (§1) To further identify the amino acid residues of TIGIT that interact with the recombinant 7D4 mIgG2a antibody, single alanine substitution mutants were generated in the human TIGIT IgV domain by site-directed mutagenesis using standard molecular techniques. ELISA binding assays were then performed to assess 7D4 binding strength.
(§2) To identify the amino acid residues of TIGIT that interact with the humanized 7D4 variant, 1A11 (in human IgG1-DLE isotype), ELISA binding assays with the single alanine substitution mutants were performed to assess 1A11 binding strength. […] Similar to the parental mouse 7D4 antibody, Q56 and Y106 single alanine substitution mutants completely abolished the binding of 1A11.

Assay [5] deals with T4, human TIGIT IgV domain Y110A (human, UniProt Q495A1 22-141, limits assumed).
T4 construct: Made in Expi293F cells, purified on Strep-Tactin XT; Limits of the IgV domain not readable, whole entry named; also called Y110 single alanine substitution mutant
T4 chain: T2 chain with Y89A
Put plainly: ELISA on TIGIT IgV point mutants. As to the method: as §1, §2

The target in assay [6] is T5, human TIGIT IgV domain H111 single alanine substitution mutant (human, UniProt Q495A1 22-141, limits assumed).
T5 construct: Printed as "H111" in the list of mutants; the text calls it a single alanine substitution mutant; Limits of the IgV domain not readable, whole entry named; also called H111A
T5 chain: T2 chain with H90A
Put plainly: ELISA on TIGIT IgV point mutants. As to the method:
as §1, §2

The target of assay [7] is T6, human TIGIT IgV domain Y106A (human, UniProt Q495A1 22-141, limits assumed).
T6 construct: Made in Expi293F cells, purified on Strep-Tactin XT; Limits of the IgV domain not readable, whole entry named; also called Y106 single alanine substitution mutant
T6 chain: T2 chain with Y85A
Put plainly: ELISA on TIGIT IgV point mutants. On the procedure: as §1, §2

Assay [8] has as its target T7, human TIGIT IgV domain Q56A (human, UniProt Q495A1 22-141, limits assumed).
T7 construct: Made in Expi293F cells, purified on Strep-Tactin XT; Limits of the IgV domain not readable, whole entry named; also called Q56 single alanine substitution mutant
T7 chain: T2 chain with Q35A
Put plainly: ELISA on TIGIT IgV point mutants. On the procedure:
as §1, §2

For assay [9], the target named is T8, human TIGIT expressed on cells (TIGIT/Jurkat cells; MJ[G11] cells; PBMC T cells) (human, UniProt Q495A1 22-244).
T8 construct: The cell line is named under assay; also called human TIGIT-expressing Jurkat cells
T8 sequence: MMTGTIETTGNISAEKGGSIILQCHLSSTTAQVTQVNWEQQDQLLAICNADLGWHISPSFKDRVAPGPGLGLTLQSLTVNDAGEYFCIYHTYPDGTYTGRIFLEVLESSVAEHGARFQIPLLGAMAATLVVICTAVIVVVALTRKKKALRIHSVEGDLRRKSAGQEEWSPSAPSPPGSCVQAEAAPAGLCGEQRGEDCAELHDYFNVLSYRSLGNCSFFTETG
Put plainly: flow cytometry on TIGIT/Jurkat cells. On the procedure:
Sequential dilutions of Protein A column-purified 7D4, 2C9, and 3A9 antibodies were separately incubated with 5×10⁵ of human TIGIT-expressing Jurkat cells (TIGIT/Jurkat) in 50 μl of FACS buffer (0.2% BSA in Dulbecco's phosphate-buffered saline (DPBS) containing 0.09% sodium azide) on ice for 1 hour. After washing, the cells were stained with anti-mouse IgG conjugated with PE dyes and antibody binding strength was analyzed by flow cytometry.
For orientation: A flow cytometer gives signals particle by particle.

For assay [10], the target named is T9, TIGIT-biotin (TIGIT:CD155 Homogeneous Assay Kit, #72029) (human, UniProt Q495A1 22-141, limits assumed, biotin (site not stated)).
T9 construct: Kit reagent; also called human TIGIT
T9 chain: T2 chain
Put plainly: AlphaLISA competition: TIGIT-biotin with antibody, then histidine-tagged CD155 as competitor. As to the method: To evaluate inhibition of binding of TIGIT to CD155 by anti-TIGIT antibodies, AlphaLISA assays were performed using a TIGIT:CD155 Homogeneous Assay Kit (PBS Biosciences, #72029). Aliquots (6 μl) of solution containing TIGIT-biotin (final concentration 0.2 ng/μl) and 4-fold serial dilution of the test antibodies (final volume 2 μl) were added into a 384-well plate. The plates were covered with a lid and incubated at room temperature for 30 min. Then, 2 μl of histidine-tagged CD155 were added (final concentration 0.05 ng/μl) into each well and incubated at room temperature for 60 min. Finally, aliquots (5 μl) of streptavidin-conjugated donor beads (final concentration 10 μg/ml) and 5 μl of anti-His tag acceptor beads (final concentration 20 μg/ml) were added and the plate was incubated at room temperature for 30 min in the dark. AlphaLISA signals were measured on an EnSpire Alpha 2390 (Perkin-Elmer Life Sciences). 15A6 (U.S. Pat. No. 10,189,902) and MBSA43 (Thermo Fisher Scientific, #16-9500-82) were used as reference antibodies.
These antibodies were selected for further functional studies.
(Alpha assays give light when donor and acceptor beads are brought close together.)

B1: 1G3 mIgG2a-DLE (antibody, V domains shown)
VH: DIQLVQSGGGLVKPGGSLRLSCAASGYTFTNYWIGWVRQTPGKGLEWVGDIYPGSSFTNSNEKFKGRFTISADKSKNTAYLQMNSLRAEDTAVYYCARDMVGYWYFDVWGQGTLVTVSS
VL: DIVLTQSPATLSASLGERATLSCSASSSVSYIHWYQQKPGQAPKLLIYTTSNLASGVPSRFSGSGSGTDFTLTISSLEAEDFATYYCHQWSRYPTFGGGTKLEIK
notes: Mouse IgG2a isotype with DLE (S239D/A330L/I332E) mutations at the Fc region
Broadly, the IC50 is the concentration needed to halve the response being measured. Higher therefore signals a need for much substance. One may read the EC50 as the concentration at which the effect is half-maximal. A low value points to greater potency. With B1, the IC50 in assay [1] is 61.7 nM. Further, the EC50 in assay [2] was determined as 9.4 nM; in assay [3] it was 3.6 nM.

B2: 1A11 hIgG1-DLE (antibody, V domains shown)
VH: B1 VH with D1E, I2V, D99L, M100G, V101R
VL: DIVLTQSPATLSASLGERATLSCSASSSVSYIHWYQQKPGQAPKLLIYTTSNLASGVPSRFSGSGSGTDFTLTISSLEAEDFATYYCQLFRSGSAFGGGTKLEIKR
notes: Human IgG1 with DLE mutations at the Fc region, expressed in CHO-S cells; also called humanized 7D4 variant 1A11 (in human IgG1-DLE isotype)
For B2, the “reduction in binding against the wild type” value in [4], in assay [5] and in assay [6] was over 40% each time. Further, the binding result in assay [7] and in [8] was “no binding” each time.

B3: 3H2 mIgG2a-DLE (antibody, V domains shown)
VH: B1 VH with D99I, M100R, V101L
VL: B1 VL
notes: as for B1
Molecule B3 registered an IC50 in assay [1] of 12.4 nM. For the same molecule, the EC50 in assay [2] worked out at 0.9 nM; in assay [3], 0.7 nM.

B4: 2F1 mIgG2a-DLE (antibody, V domains shown)
VH: B1 VH with D99V, M100I
VL: B1 VL
notes: as for B1
Take B4: the IC50 in assay [1] was determined as 33.8 nM. Besides, the results for the EC50 in assay [2] and in assay [3] were 464 nM and 1.1 nM, respectively.

B5: hz7D4 mIgG2a (antibody, V domains shown)
VH: B1 VH with D1E, I2V, D99L, M100G, V101R
VL: B1 VL
As to B5, the EC50 was determined as 0.3 nM in assay [2] and 217 nM in assay [3].

B6: recombinant 7D4 mIgG2a antibody (antibody, V domains shown)
VH: QVQLKHSGAELVRPGTSVKMSCKASGYTFTNYWIGWAKQRPGHGLEWIGDIYPGSSFTNSNEKFKGKATLTADKSSSTAYMQFSSLTSEDSAIYYCAKLGRGYWYFDVWGTGTSVTVSA
VL: DIVLTQSPAIMSASLGEEITLTCSASSSVSYIHWYQQKSGTSPKLLIYTTSNLASGVPSRFSGSGSGTFYSLTISSVEAEDAADYYCHQWSRYPTFGGGTKLEIK
notes: Recombinant form with mouse IgG2a constant region (vector pFUSEss-CHIg-mG2a); also called recombinant 7D4 antibody (in mouse IgG2a isotype)
As to B6, the “reduction in binding against the wild type” value in assay [4] was 50%; in [5], over 50%; in [6], over 50%. The binding result in assay [7] and in [8] was “no binding” each time.

B7: 2C9 (antibody, V domains shown)
VH: DIQLKQSGAELVRPGASVKLSCKASGYTFTDSYINWVKQRPGQGLEWIARFYPGSGNTYYNEKFKGKATLTAEKSSSTAYMQLSSLTSEDSAVYFCAREAWLLFYGMDYWGQGTTVTVSS
VL: DIVLTQSPAIMSASPGEKVTISCSANSSVSYMYWYQQKPGSSPKPWIYRTSNLASGVPARFSGSGSGTSYSLTISSMEAEDAATYYCQQYHSYPLTFGAGTKLELK
notes: Mouse monoclonal antibody from hybridoma clone 2C9, Protein A purified; also called anti-TIGIT monoclonal antibody 2C9
By Kd is commonly meant the free concentration of one partner at which half of the binding sites on the other are occupied at equilibrium, for simple one-to-one binding. A low value points to a tighter complex. For B7, in [9], the Kd came to 2 nM. Besides, the IC50 in assay [10] came out at 0.4 nM.

B8: 3A9 (antibody, V domains shown)
VH: QVQLQQPGAELVRPGSSVKLSCKASGYTFTSYWMHWVKQRPIQGLEWIGNIDPSDSATHYNQKFKDKATLTVDKSSSTAYMHLSSLTSEDSAVYYCARTGIDYGSSYFDYWGQGTILTVSS
VL: DIVLTQSPASLAVSLGQRATISCRASQSVSTSSYSYIHWYQQKPGQPPKLLIKYASNLESGVPARFSGSGSGTDFTLNIHPVEEEDTATYYCQHNWEIPRTFGGGTKLEIK
notes: Mouse monoclonal antibody from hybridoma clone 3A9, Protein A purified; also called anti-TIGIT monoclonal antibody 3A9
Molecule B8 showed a Kd in [9] of 1.86 nM. Also, in assay [10], the IC50 turned out to be 0.55 nM.
